Results published in patent publication US20250215444.

Experiments:
[1] = biological target: T1, LST8-1 fused C-terminally to the GSrhino tag, TAP-purified from PSB-D cell cultures, Q9LV27
T1 chain: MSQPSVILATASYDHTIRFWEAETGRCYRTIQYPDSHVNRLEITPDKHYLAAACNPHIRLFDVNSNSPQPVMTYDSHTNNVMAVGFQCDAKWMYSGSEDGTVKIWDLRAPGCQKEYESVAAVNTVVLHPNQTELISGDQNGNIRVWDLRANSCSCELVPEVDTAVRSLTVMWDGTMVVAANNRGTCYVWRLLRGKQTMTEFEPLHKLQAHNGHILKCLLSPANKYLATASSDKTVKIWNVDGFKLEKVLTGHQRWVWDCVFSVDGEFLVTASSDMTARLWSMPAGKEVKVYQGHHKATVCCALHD

[2] = biological target: T2, Raptor1B fused N- or C-terminally to the GSrhino TAP tag, TAP-purified from PSB-D cell cultures
T2 chain: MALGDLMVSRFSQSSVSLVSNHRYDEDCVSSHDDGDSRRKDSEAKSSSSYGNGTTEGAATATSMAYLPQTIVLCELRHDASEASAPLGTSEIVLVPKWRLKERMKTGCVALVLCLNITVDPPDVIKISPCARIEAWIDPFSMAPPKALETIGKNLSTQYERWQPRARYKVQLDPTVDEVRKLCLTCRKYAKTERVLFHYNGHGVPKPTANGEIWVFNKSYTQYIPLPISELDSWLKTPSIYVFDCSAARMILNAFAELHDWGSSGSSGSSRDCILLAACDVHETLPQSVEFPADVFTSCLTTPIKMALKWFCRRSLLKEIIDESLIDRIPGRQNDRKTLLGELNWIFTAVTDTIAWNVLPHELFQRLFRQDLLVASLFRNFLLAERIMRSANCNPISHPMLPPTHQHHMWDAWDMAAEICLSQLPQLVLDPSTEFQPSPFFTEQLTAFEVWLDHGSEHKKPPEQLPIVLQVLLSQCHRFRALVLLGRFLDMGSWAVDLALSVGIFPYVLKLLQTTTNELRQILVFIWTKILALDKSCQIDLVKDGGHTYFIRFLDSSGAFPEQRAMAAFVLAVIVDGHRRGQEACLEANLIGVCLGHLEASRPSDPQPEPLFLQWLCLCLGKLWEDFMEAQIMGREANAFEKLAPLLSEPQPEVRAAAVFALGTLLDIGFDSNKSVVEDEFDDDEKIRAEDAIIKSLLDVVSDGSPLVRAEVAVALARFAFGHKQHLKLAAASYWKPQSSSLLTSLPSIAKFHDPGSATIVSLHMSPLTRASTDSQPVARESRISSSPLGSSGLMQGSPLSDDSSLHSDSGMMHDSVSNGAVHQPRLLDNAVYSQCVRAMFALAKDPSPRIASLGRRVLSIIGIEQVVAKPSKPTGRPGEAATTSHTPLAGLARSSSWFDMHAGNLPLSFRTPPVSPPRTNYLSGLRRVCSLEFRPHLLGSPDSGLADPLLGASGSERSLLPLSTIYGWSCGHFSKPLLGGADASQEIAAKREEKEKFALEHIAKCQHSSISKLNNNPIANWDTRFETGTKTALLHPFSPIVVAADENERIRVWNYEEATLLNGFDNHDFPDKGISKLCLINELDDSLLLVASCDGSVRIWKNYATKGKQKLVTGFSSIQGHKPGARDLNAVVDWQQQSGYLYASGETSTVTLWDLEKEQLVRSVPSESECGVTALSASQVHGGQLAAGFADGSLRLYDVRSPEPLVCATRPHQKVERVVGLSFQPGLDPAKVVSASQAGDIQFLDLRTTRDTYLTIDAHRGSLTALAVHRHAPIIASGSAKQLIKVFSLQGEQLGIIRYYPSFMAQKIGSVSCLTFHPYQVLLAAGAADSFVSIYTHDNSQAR

B1: Recombinant RSK1 (ARSK1) kinase, His-MBP fusion produced in E. coli BL21 (protein)
chain: MAVFKKKKTSLTSLFLGCYKAKNVSKYEGGEKAVMKIRTCPAFKRLSLSDISDPSSPMSVMDDLSHSFTSQKLRLFTLSELRVITHNFSRSNMLGEGGFGPVYKGFIDDKVKPGIEAQPVAVKALDLHGHQGHREWLAEILFLGQLSNKHLVKLIGFCCEEEQRVLVYEYMPRGSLENQLFRRNSLAMAWGIRMKIALGAAKGLAFLHEAEKPVIYRDFKTSNILLDSDYNAKLSDFGLAKDGPEGEHTHVTTRVMGTQGYAAPEYIMTGHLTTMNDVYSFGVVLLELITGKRSMDNTRTRREQSLVEWARPMLRDQRKLERIIDPRLANQHKTEAAQVAASLAYKCLSQHPKYRPTMCEVVKVLESIQEVDIRKHDGNNNKEGKKFVDINKFRHHRKGKRRVNIAYSDSLVYKESKAKQNDGI
- in vitro kinase assay [1]: ARSK1 could not phosphorylate these two proteins
- in vitro kinase assay with ATP-P32, SDS-PAGE and autoradiography [2]: In the presence of ARSK1, the RAPTOR1B phosphosignal (lanes 2 and 3, rectangle) is higher compared to the control (lane 4; no ARSK1)
